The text below walks through data of publication PMC10940649, “Structural insights into human organic cation transporter 1 transport and inhibition” (Cell Discovery, 2024).

The target in the assay is T1, human organic cation transporter 1 (hOCT1) (Homo sapiens, UniProt O15245).
T1 construct: human organic cation transporter 1 (SLC22A1), full-length, wild-type construct used for cryo-EM structure determination; A 3C protease cleavage site stands between hOCT1 and GFPuv-His6; The FSEC-TS assay used hOCT1-GFP; also called SLC22A1; hOCT1-GFP; source: Sf9 insect cells (baculovirus), purified (Ni-NTA, protein C column, SEC) in DDM or LMNG micelles
As to the kind of experiment: SEC; Nb56 with hOCT1; co-migration on size exclusion chromatography. The settings on record: both partners purified. For orientation: In gel filtration, larger molecules generally elute earlier.

T1 sequence (O15245 whole entry): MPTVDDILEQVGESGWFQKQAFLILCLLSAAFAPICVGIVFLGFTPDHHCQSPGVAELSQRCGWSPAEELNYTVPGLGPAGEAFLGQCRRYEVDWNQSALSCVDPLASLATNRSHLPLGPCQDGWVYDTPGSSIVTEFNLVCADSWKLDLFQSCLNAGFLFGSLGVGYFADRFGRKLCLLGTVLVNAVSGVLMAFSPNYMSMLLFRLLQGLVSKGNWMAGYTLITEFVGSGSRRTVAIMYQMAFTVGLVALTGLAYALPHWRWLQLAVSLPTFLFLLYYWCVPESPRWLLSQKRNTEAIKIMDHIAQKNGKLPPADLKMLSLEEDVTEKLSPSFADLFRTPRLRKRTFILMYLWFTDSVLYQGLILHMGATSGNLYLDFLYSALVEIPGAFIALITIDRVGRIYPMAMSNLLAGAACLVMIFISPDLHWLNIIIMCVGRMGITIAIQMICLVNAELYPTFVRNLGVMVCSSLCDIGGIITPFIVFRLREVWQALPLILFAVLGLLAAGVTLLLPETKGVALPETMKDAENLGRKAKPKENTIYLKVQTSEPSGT

B1: Nb56 (VHH)
VHH: QVQLQESGGGLVQAGGSLRLSCAASGTIFYYEIMGWYRQAPGKEREFVATIDQGGITNYADSVKGRFTISRDNAKNTVYLQMNSLKPEDTAVYYCAVPDVFVGRGWDYLIYWGQGTQVTVSS
notes: Nanobody selected from a synthetic yeast display library with hOCT1 in LMNG as bait; Nb56 was modelled in the deposited hOCT1-Nb5660 structures (hOCT1-apo1, -apo2, -apo3); source: E. coli BL21 (DE3), pET26b, purified (Ni-NTA, SEC)
For the molecule B1, the binding result is given as “binds”.
